Results as given in patent US20150140000A1 (INNATE PHARMA, published 2015).
Where a chain is given by its changes, count along the chain named. Each block holds one binder with its values, some of them ahead of it.

Columns and labels:
[1] = biological target: wild-type human TLR3 ECD-CD32 construct (V5-TLR3-CD32) on HEK293T cells (human); test: flow cytometry, 293T cells expressing TLR3/CD32 solely at the surface, neutral pH
Description: Following two wash cycles, cell MFI was analyzed on a FACS Canto II cytometer.

[2] = biological target: T1, recombinant human His-tagged TLR3 extracellular domain protein (human, UniProt O15455 24-704); test: SPR (Biacore T100), bivalent affinity, TLR3-His immobilized, pH 7.2; pH 7.2
T1 construct: Bought protein; also called TLR3-His; recombinant human TLR3; not shown: His tag

[3] = biological target: T1, recombinant human His-tagged TLR3 …; test: SPR (Biacore T100), bivalent affinity, TLR3-His immobilized, pH 5.6; pH 5.6
Description: For bivalent affinity measurement, unless indicated otherwise, TLR3-His protein was immobilized on a Sensor Chip CM5 (carboxymethylated dextran layer) by amine coupling. […] The resulting sensorgrams were analysed by global fitting using the appropriate model.
Binding to TLR3 at neutral (pH 7.2) and acid (pH 5.6) conditions, and KD values were calculated.

EC50 [1]: 0.021 µg/mL
B1: antibody 7G11 (antibody, V domains shown)
VH: EVQLQQYGAELGKPGTSVKLSCKVSGYNITYTYMHWVNQRPGKGLEWIGRIDPANGNTIYGEKFKNKATLTADTSSNTAYMQLSQLKSDDTAIYFCAMGEFDYFDHWGQGVMVTVSS
VL: DIQMTQSPASLSASLGETVSIECLASEDISNDLAWYQQKSGKSPQVLIYAASRLEDGVPSRFSGSGSGTRYSLKISGMQPEDEADYFCQQSYKYPVTFGSGTKLEIK
notes: Rat monoclonal from LOU/c immunization #2; also called clone 7G11

EC50 [1]: 0.026 µg/mL
B2: antibody 31F6 (antibody, V domains shown)
VH: EVQLQQSGAELGKPGTSVKLSCKVSGYNIRYTYMHWVNQRPGKGLEWIGRIDPANGDSIYGEDFKTKATLTADTSSNTAYMQLSQLKSDDTAIYFCAMGEFDYFDYWGQGVMVTVSSASTK
VL: B1 VL with A9P, D28G, K39R, V46L, E55Q, S91N, V96L
notes: Rat monoclonal from LOU/c immunization #2; also called clone 31F6

EC50 [1]: 0.037 µg/mL
B3: antibody 32C4 (antibody, V domains shown)
VH: EVQLQQYGAELGKPGTSVKLSCKVSGYNIWSTYIYWVNQRPGKGLEWIGRIDPANGNTIYAEKFKTKATLTADTSSNTAYMQLSQLKSDDTAIYFCAMGDHGGYVMDAWGQGASVTVSS
VL: DIQMTQSPGSLSASLGETVSIECLASEDIYSYLAWYQQKPGKSPQLLIYAANRLEDGVPSRFSGSGSGTQYSLKISGMQPEDEGDYFCLQGSEFPYTFGTGTKLELK
notes: Rat monoclonal from LOU/c immunization #2; also called clone 32C4

EC50 [1]: 0.016 µg/mL
Kd [2]: 0.0875 nM
Kd [3]: 1 nM
B4: antibody 11E1 (antibody, V domains shown)
VH: QVQLQQPGAELVRPGASVKLSCKASGYTFTNYWMNWVKQRPGQGLEWIGMIDPSDSETHYNQMFKDKATLTVDKSSSTAYMQLSSLTSEDSAVYYCARGGASSDYYYFDYWGQGTTLTVSSASTK
VL: ETTVTQSPASLSMAIGEKVTIRCITSTDIHDDINWYQQKPGEPPKLLISEGNTLRPGVPSRFSSSGYGTDFVFTIENMLSEDVADYYCLQSDNLPRTFGGGTKLEIKRT
notes: Mouse monoclonal from Balb/c immunization #1; also called clone 11E1
